Assay results from patent US20050107285A1.

Columns and labels:
[1] = target: FcγRIIIb receptor on human neutrophils (human) (UniProt O75015); assay: flow cytometry of TNFα-primed human neutrophils with saturating FITC-Leu11b, quantified with Quantum Simply Cellular microbeads
[2] = target: FcγRIIIb receptor on human neutrophils (human) (UniProt O75015); assay: cell-based or functional assay

Chain of UniProt O75015 (O75015 17-200): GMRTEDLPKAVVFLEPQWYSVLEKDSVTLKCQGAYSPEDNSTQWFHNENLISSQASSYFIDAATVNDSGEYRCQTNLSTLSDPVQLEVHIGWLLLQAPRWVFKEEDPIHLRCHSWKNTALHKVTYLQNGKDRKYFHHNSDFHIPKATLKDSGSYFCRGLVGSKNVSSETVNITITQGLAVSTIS

Substance: FITC-labelled Leu11b (anti-CD16) (antibody)
- antibody-binding sites per cell (antibody-binding sites per cell) [1]: 240000

Substance: insoluble IgG-containing immune complexes (human serum albumin and rabbit anti-HSA antibodies) (from UniProt P02768 25-609)
- respiratory burst (luminol chemiluminescence) of primed neutrophils after PI-PLC depletion of surface FcγRIIIb [2]: 70 % decrease
